According to publication PMC9256704:

Target: PKM2 (M2 isoform of pyruvate kinase), endogenous (human (endogenous in A549 and in patients' lung cancer tissues)) (UniProt P14618)
Assay: native gel or EMSA; native PAGE of cytoplasm and nucleus of cells; TRIB2 overexpression or siRNA-TRIB2

Chain of PKM2 (M2 isoform of pyruvate kinase), endogenous, P14618 1-531 (natural protein; other documents disagree on this pair) (P14618 whole entry, canonical isoform): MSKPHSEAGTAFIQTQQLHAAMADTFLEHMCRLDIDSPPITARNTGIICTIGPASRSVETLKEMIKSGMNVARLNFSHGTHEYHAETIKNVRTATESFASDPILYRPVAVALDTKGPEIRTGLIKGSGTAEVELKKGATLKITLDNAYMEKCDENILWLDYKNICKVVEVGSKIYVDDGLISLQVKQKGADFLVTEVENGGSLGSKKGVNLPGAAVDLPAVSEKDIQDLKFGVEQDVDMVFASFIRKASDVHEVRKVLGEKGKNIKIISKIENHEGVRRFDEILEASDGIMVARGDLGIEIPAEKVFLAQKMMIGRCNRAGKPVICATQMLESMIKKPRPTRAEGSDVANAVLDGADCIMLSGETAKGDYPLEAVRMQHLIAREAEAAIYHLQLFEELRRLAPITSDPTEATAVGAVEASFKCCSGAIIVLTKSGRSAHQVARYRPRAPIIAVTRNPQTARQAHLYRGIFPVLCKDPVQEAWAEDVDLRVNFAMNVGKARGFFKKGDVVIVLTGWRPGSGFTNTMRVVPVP

stoichiometry N: 2
Substance: PKM2 (M2 isoform of pyruvate kinase), endogenous, P14618 1-531 (natural protein; other documents disagree on this pair)
